In US11440969B2, “Use of human epididymis protein 4 (HE4) for assessing responsiveness of MUC 16-positive cancer treatment” (Genentech, Inc., priority 2016, dated 2022):

Test: Safety of DMUC5754A in patients: related adverse events, DLT, MTD/RP2D (NCI CTCAE v4.0)
Format: in vivo, human
Conditions: for Median time to onset of first PN on study / On study PN = No, patients n (%) / On study PN = Yes, patients n (%): q3w dosing
Procedure: This multicenter, open-label, dose-escalation study was designed to identify the recommended Phase II dose (RP2D) of DMUC5754A in patients with platinum-resistant OC or unresectable pancreatic cancer. In the single-agent dose escalation stage utilizing a 3+3 enrollment scheme, patients were given intravenous DMUC5754A (Genentech Inc.) 0.3-3.2 mg/kg every 3 weeks (q3w) to evaluate the safety, tolerability, and pharmacokinetics of DMUC5754A. Following determination of the maximum tolerated dose (MTD), dose-expansion cohorts were enrolled at the RP2D of 2.4 mg/kg to further characterize the safety and preliminary clinical efficacy of DMUC5754A.
Dosing on a weekly (qlw) schedule was also evaluated at the RP2D, employing a 3+3 design to determine the MTD of weekly dosing, followed by a cohort expansion to further characterize the safety and activity of q1w dosing.
Safety was evaluated according to NCI CTCAE v4.0. […] The maximum tolerated dose (MTD) was defined as the dose at which ≤1 of 6 patients at an assigned dose with protocol-defined DLT. Patients who experienced a DLT or adverse event (AE) meeting DLT criteria after the DLT assessment window were allowed to delay dosing for up to 2 weeks or undergo a dose reduction.

[1] = q3w patients, over all dose levels

B1: DMUC5754A: antibody-drug conjugate: humanized IgG1 anti-MUC16 monoclonal antibody and MMAE, linked through protease labile linker maleimidocaproyl-valine-citrulline-p-aminobenzyloxycarbonyl (conjugate, chains of the INN, looked up)
VH: EVQLVESGGGLVQPGGSLRLSCAASGYSITNDYAWNWVRQAPGKGLEWVGYISYSGYTTYNPSLKSRFTISRDTSKNTLYLQMNSLRAEDTAVYYCARWTSGLDYWGQGTLVTVSS
VL: DIQMTQSPSSLSASVGDRVTITCKASDLIHNWLAWYQQKPGKAPKLLIYGATSLETGVPSRFSGSGSGTDFTLTISSLQPEDFATYYCQQYWTTPFTFGQGTKVEIK
modifications: MMAE via mc-vc-PABC linker
9: Alopecia (related AE), patients (q3w 2.4 mg/kg (n = 39)) | Hypomagnesaemia (related AE), patients (q3w All Patients (n = 54)) | Neutropenia (related AE), patients (q3w All Patients (n = 54))
20: Nausea (related AE), patients (q3w All Patients (n = 54))
11 (20%): On study PN = No, patients n (%) (Prior neuropathy = No)
39: Any adverse events (related), patients (q3w 2.4 mg/kg (n = 39))
21: Peripheral neuropathy (related AE), patients (q3w All Patients (n = 54))
1: Any adverse events (related), patients (q3w 0.6 mg/kg (n = 3)) | Diarrhea (related AE), patients (q3w 0.6 mg/kg (n = 3)) | Fatigue (related AE), patients (q3w 0.6 mg/kg (n = 3)) | Vomiting (related AE), patients (q3w 0.6 mg/kg (n = 3)) | Diarrhea (related AE), patients (q3w 1.2 mg/kg (n = 3)) | Fatigue (related AE), patients (q3w 1.2 mg/kg (n = 3)) | Vomiting (related AE), patients (q3w 1.2 mg/kg (n = 3)) | Alopecia (related AE), patients (q3w 1.8 mg/kg (n = 3)) | Decreased appetite (related AE), patients (q3w 1.8 mg/kg (n = 3)) | Fatigue (related AE), patients (q3w 1.8 mg/kg (n = 3)) | Hypophosphatemia (related AE), patients (q3w 1.8 mg/kg (n = 3)) | Nausea (related AE), patients (q3w 1.8 mg/kg (n = 3)) | Alopecia (related AE), patients (q3w 3.2 mg/kg (n = 3)) | Arthralgia (related AE), patients (q3w 3.2 mg/kg (n = 3)) | Asthenia (related AE), patients (q3w 3.2 mg/kg (n = 3)) | Decreased appetite (related AE), patients (q3w 3.2 mg/kg (n = 3)) | Diarrhea (related AE), patients (q3w 3.2 mg/kg (n = 3)) | Dysgeusia (related AE), patients (q3w 3.2 mg/kg (n = 3)) | Neutropenia (related AE), patients (q3w 3.2 mg/kg (n = 3)) | Peripheral neuropathy (related AE), patients (q3w 3.2 mg/kg (n = 3)) | Drug-related SAE hypocalcemia, patients (q3w patients) | Drug-related SAE neutropenia, patients (q3w patients)
31 (57%): On study PN = No, patients n (%) (Total)
20.4%: alopecia, related AE [1] | pyrexia, related AE [1]
51: Any adverse events (related), patients (q3w All Patients (n = 54))
3: Any adverse events (related), patients (q3w 1.2 mg/kg (n = 3)) | Any adverse events (related), patients (q3w 3.2 mg/kg (n = 3)) | Hypophosphatemia (related AE), patients (q3w 3.2 mg/kg (n = 3)) | Nausea (related AE), patients (q3w 3.2 mg/kg (n = 3)) | Vomiting (related AE), patients (q3w 3.2 mg/kg (n = 3))
37.0%: nausea, related AE [1]
31: Fatigue (related AE), patients (q3w All Patients (n = 54))
26: Fatigue (related AE), patients (q3w 2.4 mg/kg (n = 39))
5.6%: patients with AEs leading to treatment discontinuation (q3w cohorts, 3/54 patients)
8: Diarrhea (related AE), patients (q3w 2.4 mg/kg (n = 39)) | Neutropenia (related AE), patients (q3w 2.4 mg/kg (n = 39)) | Arthralgia (related AE), patients (q3w All Patients (n = 54)) | Dysgeusia (related AE), patients (q3w All Patients (n = 54))
57.4%: fatigue, related AE [1]
5: Arthralgia (related AE), patients (q3w 2.4 mg/kg (n = 39)) | Asthenia (related AE), patients (q3w 2.4 mg/kg (n = 39))
71 days: Median time to onset of first PN on study (Prior neuropathy = No)
15: Nausea (related AE), patients (q3w 2.4 mg/kg (n = 39)) | Vomiting (related AE), patients (q3w All Patients (n = 54))
13: Diarrhea (related AE), patients (q3w All Patients (n = 54))
27.8%: peripheral sensory neuropathy, related AE [1] | vomiting, related AE [1]
9.3%: Grade ≥3 related neutropenia (q3w patients, total)
7.4%: Grade ≥3 related fatigue (q3w patients, total)
148 days: Median time to onset of first PN on study (Prior neuropathy = Yes)
18 (33%): On study PN = Yes, patients n (%) (Prior neuropathy = No)
10: Vomiting (related AE), patients (q3w 2.4 mg/kg (n = 39))
11: Decreased appetite (related AE), patients (q3w 2.4 mg/kg (n = 39)) | Alopecia (related AE), patients (q3w All Patients (n = 54)) | Pyrexia (related AE), patients (q3w All Patients (n = 54))
7: Dysgeusia (related AE), patients (q3w 2.4 mg/kg (n = 39)) | Pyrexia (related AE), patients (q3w 2.4 mg/kg (n = 39))
6: Hypomagnesaemia (related AE), patients (q3w 2.4 mg/kg (n = 39)) | Asthenia (related AE), patients (q3w All Patients (n = 54)) | Hypokalemia (related AE), patients (q3w All Patients (n = 54)) | Hypophosphatemia (related AE), patients (q3w All Patients (n = 54))
23 (43%): On study PN = Yes, patients n (%) (Total)
24.1%: diarrhea, related AE [1]
4: Hypokalemia (related AE), patients (q3w 2.4 mg/kg (n = 39)) | Grade ≥3 related fatigue, patients (q3w, at 2.4 mg/kg) | Grade ≥3 related neutropenia, patients (q3w, at 2.4 mg/kg)
2: Decreased appetite (related AE), patients (q3w 1.2 mg/kg (n = 3)) | Any adverse events (related), patients (q3w 1.8 mg/kg (n = 3)) | Arthralgia (related AE), patients (q3w 1.8 mg/kg (n = 3)) | Diarrhea (related AE), patients (q3w 1.8 mg/kg (n = 3)) | Hypomagnesaemia (related AE), patients (q3w 1.8 mg/kg (n = 3)) | Peripheral neuropathy (related AE), patients (q3w 1.8 mg/kg (n = 3)) | Pyrexia (related AE), patients (q3w 1.8 mg/kg (n = 3)) | Hypophosphatemia (related AE), patients (q3w 2.4 mg/kg (n = 39)) | Fatigue (related AE), patients (q3w 3.2 mg/kg (n = 3)) | Hypokalemia (related AE), patients (q3w 3.2 mg/kg (n = 3)) | Pyrexia (related AE), patients (q3w 3.2 mg/kg (n = 3)) | Drug-related SAE small intestine obstruction, patients (q3w patients)
29.6%: decreased appetite, related AE [1]
20 (37%): On study PN = No, patients n (%) (Prior neuropathy = Yes)
5 (9%): On study PN = Yes, patients n (%) (Prior neuropathy = Yes)
16: Decreased appetite (related AE), patients (q3w All Patients (n = 54))
2.4 mg/kg: RP2D (q3w schedule)
17: Peripheral neuropathy (related AE), patients (q3w 2.4 mg/kg (n = 39))
0: Pyrexia (related AE), patients (q3w 0.3 mg/kg (n = 3)) | Vomiting (related AE), patients (q3w 0.3 mg/kg (n = 3)) | Alopecia (related AE), patients (q3w 0.6 mg/kg (n = 3)) | Arthralgia (related AE), patients (q3w 0.6 mg/kg (n = 3)) | Asthenia (related AE), patients (q3w 0.6 mg/kg (n = 3)) | Decreased appetite (related AE), patients (q3w 0.6 mg/kg (n = 3)) | Dysgeusia (related AE), patients (q3w 0.6 mg/kg (n = 3)) | Hypokalemia (related AE), patients (q3w 0.6 mg/kg (n = 3)) | Hypomagnesaemia (related AE), patients (q3w 0.6 mg/kg (n = 3)) | Hypophosphatemia (related AE), patients (q3w 0.6 mg/kg (n = 3)) | Nausea (related AE), patients (q3w 0.6 mg/kg (n = 3)) | Neutropenia (related AE), patients (q3w 0.6 mg/kg (n = 3)) | Peripheral neuropathy (related AE), patients (q3w 0.6 mg/kg (n = 3)) | Pyrexia (related AE), patients (q3w 0.6 mg/kg (n = 3)) | Alopecia (related AE), patients (q3w 1.2 mg/kg (n = 3)) | Arthralgia (related AE), patients (q3w 1.2 mg/kg (n = 3)) | Asthenia (related AE), patients (q3w 1.2 mg/kg (n = 3)) | Dysgeusia (related AE), patients (q3w 1.2 mg/kg (n = 3)) | Hypokalemia (related AE), patients (q3w 1.2 mg/kg (n = 3)) | Hypomagnesaemia (related AE), patients (q3w 1.2 mg/kg (n = 3)) | Hypophosphatemia (related AE), patients (q3w 1.2 mg/kg (n = 3)) | Nausea (related AE), patients (q3w 1.2 mg/kg (n = 3)) | Neutropenia (related AE), patients (q3w 1.2 mg/kg (n = 3)) | Peripheral neuropathy (related AE), patients (q3w 1.2 mg/kg (n = 3)) | Pyrexia (related AE), patients (q3w 1.2 mg/kg (n = 3)) | Asthenia (related AE), patients (q3w 1.8 mg/kg (n = 3)) | Dysgeusia (related AE), patients (q3w 1.8 mg/kg (n = 3)) | Hypokalemia (related AE), patients (q3w 1.8 mg/kg (n = 3)) | Neutropenia (related AE), patients (q3w 1.8 mg/kg (n = 3)) | Vomiting (related AE), patients (q3w 1.8 mg/kg (n = 3)) | Hypomagnesaemia (related AE), patients (q3w 3.2 mg/kg (n = 3))
99 days: Median time to onset of first PN on study (Total)
